Results from patent US8828676B2, “Methods for differentiating plasma-derived protein from recombinant protein in a sample” (Baxter International Inc., priority 2007, dated 2014).
Where two headings read alike, the source gives them in different places.

How the values were obtained:
[1] = target: binding of SNA to plasma VWF (Sambucus nigra, UniProt Q41358); details: for Inhibition of binding of SNA to plasma VWF: plasma VWF:Ag 5 mU/mL
[2] = test system: Maackia amurensis agglutinin (MAA); assay: MAA binding of plasma VWF and rVWF after neuraminidase treatment; details: for Binding to MAL after addition of neuraminidase: neuraminidase 1-20 mU/mL
Description: In order to confirm that the recombinant protein did express sialic acid moieties, but in a different configuration than the plasma derived sialic acid, a binding assay that measures binding of protein to α2,3-linked neuraminic acid is used to detect the recombinantly expressed α2,3-linked neuraminic acid on the recombinant protein. The lectin, Maackia amurensis agglutinin (MAA), which binds α2,3-linked neuraminic acid, was used to determine if desialylation of rVWF occurred in the presence of neuraminidase.
Anti-vWF plates were prepared as above. Both the human plasma pool and the rVWF preparation were diluted to obtain VWF:Ag concentrations of 5 mU/mL and 2.5 mU/mL. 100 μL/well of the sample dilutions were loaded to the coated, periodate-oxidized plates and incubated for 60 minutes at RT and washed afterwards. The neuraminidase digest was then carried out on the plate. Neuraminidase (Sigma) was used at the concentrations of 0, 1, 5, 10 and 20 mU/mL. Afterwards, the plates were washed and incubated with the biotinylated MAA (Vector, 1 μg/mL) for 60 minutes at RT. The incubation was terminated by washing, after which the plates were incubated 30 minutes at RT with streptavidin peroxidase (DakoCytomation, 1/4000). After a final washing step, the bound peroxidase was measured as previously described.

[3] = target: T1, Sambucus nigra agglutinin (SNA) (Sambucus nigra, UniProt Q41358); details: for Change of SNA binding after neuraminidase treatment: neuraminidase 0-20 mU/mL, 2 hours 37° C.
[4] = target: T1, Sambucus nigra agglutinin (SNA); details: plasma pool 2.88-0.18 mU VWF:Ag/mL; rVWF 311-19 mU/mL
[5] = target: T1, Sambucus nigra agglutinin (SNA); details: mean of six tests, human plasma pool = 100%

Sequence of binding of SNA to plasma VWF (Q41358 309-570 limits assumed): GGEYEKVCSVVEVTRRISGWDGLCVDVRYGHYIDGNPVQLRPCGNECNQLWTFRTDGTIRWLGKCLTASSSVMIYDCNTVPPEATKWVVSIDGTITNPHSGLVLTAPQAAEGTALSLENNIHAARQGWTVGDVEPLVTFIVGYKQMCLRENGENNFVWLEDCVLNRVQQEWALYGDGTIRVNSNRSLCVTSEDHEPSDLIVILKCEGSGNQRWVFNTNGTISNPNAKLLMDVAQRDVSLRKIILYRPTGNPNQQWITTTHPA
Sequence of binding of SNA to plasma VWF (Q41358 29-289 partner limits assumed): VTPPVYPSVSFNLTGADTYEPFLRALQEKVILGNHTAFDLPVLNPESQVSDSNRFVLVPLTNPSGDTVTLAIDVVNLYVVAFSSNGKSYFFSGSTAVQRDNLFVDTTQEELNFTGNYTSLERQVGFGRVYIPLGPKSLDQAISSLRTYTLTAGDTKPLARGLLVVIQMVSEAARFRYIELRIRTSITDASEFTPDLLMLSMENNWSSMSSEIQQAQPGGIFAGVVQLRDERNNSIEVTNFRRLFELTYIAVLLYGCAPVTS

Compound: CC(=O)N[C@H]1[C@H]([C@H](O)[C@H](O)CO)O[C@@](O[C@H]2[C@@H](O)[C@@H](CO)O[C@@H](O[C@H]3[C@H](O)[C@@H](O)C(O)O[C@@H]3CO)[C@@H]2O)(C(=O)O)C[C@@H]1O (some centres unmarked) [3′-sialyllactose]
- Effect on binding of SNA to plasma VWF ([1]; assay as in Example 5): no effect

Compound: CHO cell-derived rVWF: recombinantly produced von Willebrand factor from Chinese hamster ovary (CHO) cells
- Binding to MAL after addition of neuraminidase [2]: abolished
- MAA lectin binding ([2]; without neuraminidase): bound
- Change of SNA binding after neuraminidase treatment ([3]; VWF:Ag 5 and 2.5 mU/mL): not altered
- SNA binding ([3]; without neuraminidase, VWF:Ag 5 and 2.5 mU/mL): no binding
- SNA binding [4]: no binding

Compound: plasma VWF: plasma derived von Willebrand factor, measured in a human plasma pool
- Binding to MAL after addition of neuraminidase [2]: abolished
- SNA binding Mean (SNA binding measured) ([5]; Example 7, 0 U rVWF spiked): 137.2%
- SNA binding Mean (SNA binding found) ([5]; Example 8, 0 rVWF spiked): 123.5%
- Change of SNA binding after neuraminidase treatment ([3]; VWF:Ag 5 and 2.5 mU/mL): reduced proportional to the concentration of the neuraminidase applied
- SNA binding relative to initially measured ([3]; neuraminidase 20 mU/mL): less than 95%
- SNA binding [4]: clear dose dependent relation

Compound: CC(=O)N[C@H]1[C@H]([C@H](O)[C@H](O)CO)O[C@@](OC[C@H]2O[C@@H](O[C@H]3[C@H](O)[C@@H](O)[C@H](O)O[C@@H]3CO)[C@H](O)[C@@H](O)[C@H]2O)(C(=O)O)C[C@@H]1O [6′-sialyllactose]
- Inhibition of binding of SNA to plasma VWF ([1]; 10 μM): approximately 25%
- Inhibition of binding of SNA to plasma VWF ([1]; 100 μM): ~75%
